From the supplement of paper PMC9112550, “Optimization of the antimicrobial peptide Bac7 by deep mutational scanning” (BMC Biology, 2022)

Each sequence was assayed on Escherichia coli TOP10 (assay: shrunken log2 fold change of peptide-encoding DNA abundance (4.5 h post-induction vs induction); higher = less antimicrobial activity (less host growth inhibition)). Details: time post-induction: 4.5 h; library: site-saturation at positions 5, 18, 19, 20.
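Also: peptides expressed intracellularly from a pBAD plasmid library in pooled LB shake-flask culture, induced with 0.3% L-arabinose, DNA abundance read by NGS, three biological replicates, DESeq2 with apeglm shrinkage.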

Sequence	shrunken log2 fold change
RRIRHRPPRLPRPRPRPPVCPRP	-0.0372
RRIRGRPPRLPRPRPRPKFGPRP	0.241
RRIRLRPPRLPRPRPRPPYNPRP	-0.689
RRIRMRPPRLPRPRPRPVSPPRP	0.418
RRIRNRPPRLPRPRPRPVMEPRP	-0.173
RRIRRRPPRLPRPRPRPVYVPRP	-0.198
RRIRFRPPRLPRPRPRPSFNPRP	-0.792
RRIRKRPPRLPRPRPRPEQGPRP	0.199
RRIRGRPPRLPRPRPRPEPWPRP	0.655
RRIRGRPPRLPRPRPRPFGPPRP	0.355
RRIRNRPPRLPRPRPRPATLPRP	-0.365
RRIRQRPPRLPRPRPRPGAEPRP	0.39
RRIRERPPRLPRPRPRPIYCPRP	-0.143
RRIRFRPPRLPRPRPRPPQSPRP	0.334
RRIRERPPRLPRPRPRPRPSPRP	-0.093
RRIRNRPPRLPRPRPRPDMFPRP	-0.00166
RRIRTRPPRLPRPRPRPWTPPRP	-0.00155
RRIRHRPPRLPRPRPRPDVFPRP	-0.37
RRIRGRPPRLPRPRPRPQNIPRP	-0.603
RRIRMRPPRLPRPRPRPAVLPRP	0.0985
RRIRIRPPRLPRPRPRPLMIPRP	-0.807
RRIRGRPPRLPRPRPRPDGFPRP	0.171
RRIRCRPPRLPRPRPRPVQNPRP	-0.22
RRIRARPPRLPRPRPRPCSNPRP	-0.153
RRIRIRPPRLPRPRPRPTSHPRP	-0.19

Sequence	shrunken log2 fold change
RRIRTRPPRLPRPRPRPHAKPRP	0.0187
RRIRERPPRLPRPRPRPNANPRP	0.343
RRIRHRPPRLPRPRPRPNISPRP	-0.319
RRIRRRPPRLPRPRPRPANSPRP	0.0678
RRIRWRPPRLPRPRPRPMDMPRP	-0.0589
RRIRSRPPRLPRPRPRPKNPPRP	-0.11
RRIRARPPRLPRPRPRPRRNPRP	0.308
RRIRIRPPRLPRPRPRPKWSPRP	0.107
RRIRYRPPRLPRPRPRPMADPRP	-0.0453
RRIRWRPPRLPRPRPRPNGLPRP	0.145
RRIRDRPPRLPRPRPRPFNHPRP	-0.368
RRIRHRPPRLPRPRPRPQGAPRP	-0.171
RRIRLRPPRLPRPRPRPNPGPRP	-0.213
RRIRFRPPRLPRPRPRPPCMPRP	-0.125
RRIRERPPRLPRPRPRPPYMPRP	-1.73
RRIRTRPPRLPRPRPRPVITPRP	0.0105
RRIRNRPPRLPRPRPRPKSGPRP	0.161
RRIRLRPPRLPRPRPRPPELPRP	0.389
RRIRERPPRLPRPRPRPYYGPRP	-0.127
RRIRSRPPRLPRPRPRPKQFPRP	0.26
RRIRPRPPRLPRPRPRPMMEPRP	0.0824
RRIRFRPPRLPRPRPRPEGRPRP	-0.145
RRIRRRPPRLPRPRPRPIAEPRP	0.446
RRIRRRPPRLPRPRPRPNSNPRP	-0.302
RRIRNRPPRLPRPRPRPYIMPRP	-0.741

Sequence	shrunken log2 fold change
RRIRNRPPRLPRPRPRPKMSPRP	-0.064
RRIRMRPPRLPRPRPRPKNEPRP	0.881
RRIRCRPPRLPRPRPRPPYYPRP	-0.314
RRIRGRPPRLPRPRPRPHKVPRP	0.184
RRIRYRPPRLPRPRPRPRSHPRP	-0.267
RRIRGRPPRLPRPRPRPYTRPRP	-0.0484
RRIRWRPPRLPRPRPRPGCAPRP	0.948
RRIRYRPPRLPRPRPRPPQIPRP	-0.178
RRIRTRPPRLPRPRPRPLTEPRP	-0.23
RRIRCRPPRLPRPRPRPDGTPRP	0.105
RRIRRRPPRLPRPRPRPVVCPRP	0.0897
RRIRGRPPRLPRPRPRPCTLPRP	0.321
RRIRYRPPRLPRPRPRPRMIPRP	-0.118
RRIRGRPPRLPRPRPRPLQTPRP	1.59
RRIRPRPPRLPRPRPRPCIHPRP	-0.252
RRIRARPPRLPRPRPRPWPWPRP	0.261
RRIRGRPPRLPRPRPRPSLYPRP	0.189
RRIRARPPRLPRPRPRPPQMPRP	0.868
RRIRHRPPRLPRPRPRPDPMPRP	0.0718
RRIRIRPPRLPRPRPRPAITPRP	-0.706
RRIRVRPPRLPRPRPRPWFRPRP	-0.304
RRIRMRPPRLPRPRPRPGKAPRP	0.153
RRIRGRPPRLPRPRPRPGTMPRP	0.0523
RRIRSRPPRLPRPRPRPKSCPRP	0.61
RRIRLRPPRLPRPRPRPMLGPRP	0.0421
